Measured values reported in IntAct's records for PubMed 15064722.

B1: WW domain-binding protein 1 (Homo sapiens), Q96G27 (parent)
chain: MARASSGNGSEEAWGALRAPQQQLRELCPGVNNQPYLCESGHCCGETGCCTYYYELWWFWLLWTVLILFSCCCAFRHRRAKLRLQQQQRQREINLLAYHGACHGAGPFPTGSLLDLRFLSTFKPPAYEDVVHRPGTPPPPYTVAPGRPLTASSEQTCCSSSSSCPAHFEGTNVEGVSSHQSAPPHQEGEPGAGVTPASTPPSCRYRRLTGDSGIELCPCPASGEGEPVKEVRVSATLPDLEDYSPCALPPESVPQIFPMGLSSSEGDIP
partner: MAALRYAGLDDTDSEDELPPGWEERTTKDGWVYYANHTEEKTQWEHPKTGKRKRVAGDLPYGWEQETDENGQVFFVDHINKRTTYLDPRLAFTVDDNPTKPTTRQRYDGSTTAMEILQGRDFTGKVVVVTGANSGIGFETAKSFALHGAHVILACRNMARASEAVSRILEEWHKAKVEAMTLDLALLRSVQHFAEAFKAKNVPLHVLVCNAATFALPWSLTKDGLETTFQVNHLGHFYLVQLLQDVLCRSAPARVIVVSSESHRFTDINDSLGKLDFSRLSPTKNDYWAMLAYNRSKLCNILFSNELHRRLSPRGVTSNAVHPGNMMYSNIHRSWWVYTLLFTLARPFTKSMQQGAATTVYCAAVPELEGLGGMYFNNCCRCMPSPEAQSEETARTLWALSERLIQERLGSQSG
B2: Lipopolysaccharide-induced tumor necrosis factor-alpha factor (Homo sapiens), Q99732 (parent)
chain: MSVPGPYQAATGPSSAPSAPPSYEETVAVNSYYPTPPAPMPGPTTGLVTGPDGKGMNPPSYYTQPAPIPNNNPITVQTVYVQHPITFLDRPIQMCCPSCNKMIVSQLSYNAGALTWLSCGSLCLLGCIAGCCFIPFCVDALQDVDHYCPNCRALLGTYKRL
partner: B1 partner
B3: WW domain-containing oxidoreductase (Homo sapiens), Q9NZC7 (parent)
chain: B1 partner

Variants of: B1
Conditions: with wwox_human WWOX

Variant	effect of a mutation on the interaction
MARASSGNGSEEAWGALRAPQQQLRELCPGVNNQPYLCESGHCCGETGCCTYYYELWWFWLLWTVLILFSCCCAFRHRRAKLRLQQQQRQREINLLAYHGACHGAGPFPTGSLLDLRFLSTFKPPAYEDVVHRPGTPPPPATVAPGRPLTASSEQTCCSSSSSCPAHFEGTNVEGVSSHQSAPPHQEGEPGAGVTPASTPPSCRYRRLTGDSGIELCPCPASGEGEPVKEVRVSATLPDLEDYSPCALPPESVPQIFPMGLSSSEGDIP [Y141A]	disrupting interaction

Variants of: B2
Conditions: with wwox_human WWOX

Variant	effect of a mutation on the interaction
Y23A	decreasing interaction
Y23A;Y61A	disrupting interaction

Variants of: B3
Conditions: with litaf_human LITAF

Variant	effect of a mutation on the interaction
MAALRYAGLDDTDSEDELPPGWEERTTKDGWVYYANHTEEKTQFEHAKTGKRKRVAGDLPYGWEQETDENGQVFFVDHINKRTTYLDPRLAFTVDDNPTKPTTRQRYDGSTTAMEILQGRDFTGKVVVVTGANSGIGFETAKSFALHGAHVILACRNMARASEAVSRILEEWHKAKVEAMTLDLALLRSVQHFAEAFKAKNVPLHVLVCNAATFALPWSLTKDGLETTFQVNHLGHFYLVQLLQDVLCRSAPARVIVVSSESHRFTDINDSLGKLDFSRLSPTKNDYWAMLAYNRSKLCNILFSNELHRRLSPRGVTSNAVHPGNMMYSNIHRSWWVYTLLFTLARPFTKSMQQGAATTVYCAAVPELEGLGGMYFNNCCRCMPSPEAQSEETARTLWALSERLIQERLGSQSG [W44F;P47A]	disrupting interaction
MAALRYAGLDDTDSEDELPPGWEERTTKDGWVYYANHTEEKTQWEHPKTGKRKRVAGDLPYGWEQETDENGQVFFVDHINKRTTALDARLAFTVDDNPTKPTTRQRYDGSTTAMEILQGRDFTGKVVVVTGANSGIGFETAKSFALHGAHVILACRNMARASEAVSRILEEWHKAKVEAMTLDLALLRSVQHFAEAFKAKNVPLHVLVCNAATFALPWSLTKDGLETTFQVNHLGHFYLVQLLQDVLCRSAPARVIVVSSESHRFTDINDSLGKLDFSRLSPTKNDYWAMLAYNRSKLCNILFSNELHRRLSPRGVTSNAVHPGNMMYSNIHRSWWVYTLLFTLARPFTKSMQQGAATTVYCAAVPELEGLGGMYFNNCCRCMPSPEAQSEETARTLWALSERLIQERLGSQSG [Y85A;P88A]	decreasing interaction
